Measurements as given in patent US20130017199A1, “SIMULTANEOUS INHIBITION OF PD-L1/PD-L2” (AMPLIMMUNE ,Inc. a corporation, priority 2009, published 2013).

Experiments:
[1] = test system: CT26 colorectal tumor cells; test: Established CT26 tumor model, eradication and rechallenge; settings: CTX alone, 100 mg/kg on day 10
[2] = target: mouse PD-1-Ig (extracellular domain of mouse PD-1 linked to the Fc portion of mouse IgG2a) (mouse) (UniProt Q02242); test: capture ELISA; PD-1-Ig coated on plate, COS supernatant, anti-human IgG-HRP
Sequence of UniProt Q02242 (Q02242 25-169): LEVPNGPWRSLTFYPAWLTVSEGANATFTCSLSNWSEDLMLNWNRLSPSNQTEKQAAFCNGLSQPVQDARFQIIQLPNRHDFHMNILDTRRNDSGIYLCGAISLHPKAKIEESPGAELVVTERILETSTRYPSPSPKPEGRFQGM

| Binding activity ELISA (%) [2] [%] | Compound | outcome of tumor bearing mice [1] |
| --- | --- | --- |
| – | O=P1(N(CCCl)CCCl)NCCCO1 (stereo not drawn) [CTX, cyclophosphamide] | died as a result of tumor growth or were euthanized |
| 2 | mouse B7-H1-Ig F67A (from UniProt Q9EP73 19-239) (Fc fusion) | – |
| 3 | mouse B7-H1-Ig I115A (from UniProt Q9EP73 19-239) (Fc fusion) | – |
